According to PMC10319324, “Ηigh-resolution structure of mammalian PI31–20S proteasome complex reveals mechanism of proteasome inhibition” (The Journal of Biological Chemistry, 2023):

T1: recombinant wildtype human PI31 (Proteasome Inhibitor of 31,000 Da) (human, UniProt Q92530 1-271)
T1 construct: PI31, product of the PSMF1 gene, human; The methods name a pET28a(+) vector with N-terminally tagged wildtype hPI31 and 'His-PI31 (wildtype)' for mass photometry; Exists in a monomer-dimer equilibrium; also called hPI31; hPI31^WT; source: E. coli, purified; not shown: His tag, N-terminal, kept
T1 sequence (looked up): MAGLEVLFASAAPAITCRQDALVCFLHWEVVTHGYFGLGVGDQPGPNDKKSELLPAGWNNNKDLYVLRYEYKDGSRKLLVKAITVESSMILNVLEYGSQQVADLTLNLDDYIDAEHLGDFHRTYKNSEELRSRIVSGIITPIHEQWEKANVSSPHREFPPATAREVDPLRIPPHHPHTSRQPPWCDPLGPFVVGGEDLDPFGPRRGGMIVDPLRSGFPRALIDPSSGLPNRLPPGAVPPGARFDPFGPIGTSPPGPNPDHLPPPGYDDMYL


Columns and labels:
[1] = target: the molecule itself; assay: mass photometry; monomer to dimer; His-PI31 diluted to 40 nM total monomer in PBS, recorded immediately after mixing (TwoMP, Refeyn); peaks at 36 to 37 and 56 to 59 kDa
[2] = target: bovine 20S proteasome (bovine, UniProt Q2YDE4 1-246; Q3T0Y5 1-234; Q3ZCK9 1-261; Q3ZBG0 1-248; Q5E987 1-241; Q3T0X5 …); assay: cell-based or functional assay
[3] = target: T1, recombinant wildtype human PI31 …; assay: cryo-EM structure; purified hPI31 and bovine 20S mixed at a molar ratio of 5:1, 37 °C for 1 h in 20 mM Tris, pH 7.5, 5 mM MgCl2, 100 mM KCl, 1 mM DTT; latent closed-gate 20S; C1 map at 2.54 Å; conditions: both partners purified

Row | [monomer] at 50% inhibitory activity against SDS-activated 20S (50 nM), PI31 up to 10-fold molar excess [2] | inhibition of the catalytic activity of each subunit type (β1, β2, β5 peptide substrates), PI31 at 10- to 20-fold molar excess [2] | binding result [3] | Binder | [monomer]/[M]T ratio [1]
1 | 108 nM |  |  | human PI31 V6R dimerization mutant (natural protein, UniProt Q92530 1-271, looked up, PI31, product of the PSMF1 gene, human; point mutation V6R in the FP domain, made on the pET28a(+)-HisPI31^wt template; also called hPI31^V6R; source: E. coli BL21 Star (DE3), purified (Ni-NTA); not shown: His tag, N-terminal, kept) MAGLERLFASAAPAITCRQDALVCFLHWEVVTHGYFGLGVGDQPGPNDKKSELLPAGWNNNKDLYVLRYEYKDGSRKLLVKAITVESSMILNVLEYGSQQVADLTLNLDDYIDAEHLGDFHRTYKNSEELRSRIVSGIITPIHEQWEKANVSSPHREFPPATAREVDPLRIPPHHPHTSRQPPWCDPLGPFVVGGEDLDPFGPRRGGMIVDPLRSGFPRALIDPSSGLPNRLPPGAVPPGARFDPFGPIGTSPPGPNPDHLPPPGYDDMYL | 0.54
2 | 200 nM | > 95% |  | human PI31 C-terminal domain, residues 152-271 (domain or fragment, UniProt Q92530 152-271, looked up) SSPHREFPPATAREVDPLRIPPHHPHTSRQPPWCDPLGPFVVGGEDLDPFGPRRGGMIVDPLRSGFPRALIDPSSGLPNRLPPGAVPPGARFDPFGPIGTSPPGPNPDHLPPPGYDDMYL | 
3 |  |  | binds | β2 subunit of the bovine 20S proteasome (natural protein, UniProt Q2TBP0 44-277, looked up, Stood in the assay as a subunit of the assembled 20S proteasome; also called β2 active site; β2 catalytic site; source: purified from bovine red blood cells, as part of the 20S proteasome) TTIAGVVYKDGIVLGADTRATEGMVVADKNCSKIHFISPNIYCCGAGTAADTDMTTQLISSNLELHSLSTGRLPRVVTANRMLKQMLFRYQGYIGAALVLGGVDVTGPHLYSIYPHGSTDKLPYVTMGSGSLAAMAVFEDKFRPDMEEEEAKKLVSEAIAAGIFNDLGSGSNIDLCVISKSKLDFLRPYSVPNKKGTRFGRYRCEKGTNAVLTEKVTTLEIEVLEETVQTMDTS | 
4 |  |  | binds | β5 subunit of the bovine 20S proteasome (natural protein, UniProt Q32KL2 60-263, looked up, Stood in the assay as a subunit of the assembled 20S proteasome; also called β5 active site; β5 catalytic site; source: purified from bovine red blood cells, as part of the 20S proteasome) TTTLAFKFRHGVIVAADSRATAGAYIASQTVKKVIEINPYLLGTMAGGAADCSFWERLLARQCRIYELRNKERISVAAASKLLANMVYQYKGMGLSMGTMICGWDKRGPGLYYVDSEGNRISGATFSVGSGSVYAYGVMDRGYSYDLEVEEAYDLARRAIYQATYRDAYSGGSVSLYHVREDGWIRVSSDNVADLHDKYSGSTH | 
